The values below come from the supplement of paper PMC10567573.

B1: CAMK2D (parent)
chain: IVRLHDSISEEGFHYLVFDLVTGG
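Note: lentivirally expressed fusions sorted by FACS into six bins by GFP to DsRed ratio, PSI derived from sequencing read proportions per bin multiplied by bin number.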

In the data set the parent is B1. Description: protein stability index of a GFP-peptide fusion (GPS, HEK-293T) (PSI 1-6); higher = more stable. As to conditions: c terminus: a fixed tail appended.
Consider IVRLHDLISEEGFHYLVFDLVTGG [S7L], for which the protein stability index turned out to be 2.56. For IVRLHDWISEEGFHYLVFDLVTGG [S7W] the value was 2.25. For IVRLHDHISEEGFHYLVFDLVTGG [S7H] the value was 3.68; for IVRLHDGISEEGFHYLVFDLVTGG [S7G], 1.96; for IVRLHDNISEEGFHYLVFDLVTGG [S7N], 3.29. For IVRLHDTISEEGFHYLVFDLVTGG [S7T], the protein stability index came out at 3.19. Take IVRLHDEISEEGFHYLVFDLVTGG [S7E]: the protein stability index stood at 2.24. With IVRLHDAISEEGFHYLVFDLVTGG [S7A] the figure was 3.35; with IVRLHDQISEEGFHYLVFDLVTGG [S7Q], 2.4. For IVRLHDYISEEGFHYLVFDLVTGG [S7Y] the value was 3.15; for IVRLHDMISEEGFHYLVFDLVTGG [S7M], 3.09.

For the variant IVQLHDSISEEGFHYLVFDLVTGG [R3Q], the protein stability index was found to be 2. With IVPLHDSISEEGFHYLVFDLVTGG [R3P] the figure was 2.28. Consider IVCLHDSISEEGFHYLVFDLVTGG [R3C], for which the protein stability index stood at 2.03.

Turning to IVYLHDSISEEGFHYLVFDLVTGG [R3Y], the protein stability index is 2.58. For IVSLHDSISEEGFHYLVFDLVTGG [R3S] the value was 1.57; for IVGLHDSISEEGFHYLVFDLVTGG [R3G], 2.41; for IVHLHDSISEEGFHYLVFDLVTGG [R3H], 3.12. With IVVLHDSISEEGFHYLVFDLVTGG [R3V] the figure was 2.23. For IVELHDSISEEGFHYLVFDLVTGG [R3E] the value was 2.25; for IVRDHDSISEEGFHYLVFDLVTGG [L4D], 1.8. For the variant IVRKHDSISEEGFHYLVFDLVTGG [L4K], the protein stability index was determined as 3.71. For IVRAHDSISEEGFHYLVFDLVTGG [L4A] the value was 2.4. With IVRNHDSISEEGFHYLVFDLVTGG [L4N] the figure was 1.87; with IVRRHDSISEEGFHYLVFDLVTGG [L4R], 1.62; with IVRSHDSISEEGFHYLVFDLVTGG [L4S], 1.9. Turning to IVRWHDSISEEGFHYLVFDLVTGG [L4W], the protein stability index stood at 1.57. For IVRTHDSISEEGFHYLVFDLVTGG [L4T] the value was 1.29; for IVRQHDSISEEGFHYLVFDLVTGG [L4Q], 1.69. With IVRFHDSISEEGFHYLVFDLVTGG [L4F] the figure was 2.4; with IVREHDSISEEGFHYLVFDLVTGG [L4E], 1.69; with IVRPHDSISEEGFHYLVFDLVTGG [L4P], 2.39.

Take IVRHHDSISEEGFHYLVFDLVTGG [L4H]: the protein stability index was determined as 2.53.

Turning to IVRLKDSISEEGFHYLVFDLVTGG [H5K], the protein stability index was determined as 4.72. With IVRLFDSISEEGFHYLVFDLVTGG [H5F] the figure was 3.15; with IVRLYDSISEEGFHYLVFDLVTGG [H5Y], 3.23. With IVRLPDSISEEGFHYLVFDLVTGG [H5P] the figure was 3.91; with IVRLIDSISEEGFHYLVFDLVTGG [H5I], 3.99. With IVRLSDSISEEGFHYLVFDLVTGG [H5S] the figure was 3.02; with IVRLRDSISEEGFHYLVFDLVTGG [H5R], 2.39; with IVRLDDSISEEGFHYLVFDLVTGG [H5D], 2.94. For the variant IVRLCDSISEEGFHYLVFDLVTGG [H5C], the protein stability index is 3.23. With IVRLNDSISEEGFHYLVFDLVTGG [H5N] the figure was 2.33; with IVRLHDSIQEEGFHYLVFDLVTGG [S9Q], 4.38. With IVRLHDSIFEEGFHYLVFDLVTGG [S9F] the figure was 1.94; with IVRLHDSIYEEGFHYLVFDLVTGG [S9Y], 3.58; with IVRLHDSIGEEGFHYLVFDLVTGG [S9G], 1.99. For IVRLHDSIEEEGFHYLVFDLVTGG [S9E] the value was 3.35; for IVRLHDSIDEEGFHYLVFDLVTGG [S9D], 2.36; for IVRLHDSILEEGFHYLVFDLVTGG [S9L], 4.27. With IVRLHDSIPEEGFHYLVFDLVTGG [S9P], the protein stability index stood at 5.65. With IVRLHDSINEEGFHYLVFDLVTGG [S9N] the figure was 2.94; with IVRLHDSIMEEGFHYLVFDLVTGG [S9M], 3.39. As for IVRLHDSIKEEGFHYLVFDLVTGG [S9K], the protein stability index was 2.84. With IYRLHDSISEEGFHYLVFDLVTGG [V2Y] the figure was 3.12; with IIRLHDSISEEGFHYLVFDLVTGG [V2I], 3.28. As for IDRLHDSISEEGFHYLVFDLVTGG [V2D], the protein stability index turned out to be 1.79.

Turning to IKRLHDSISEEGFHYLVFDLVTGG [V2K], the protein stability index is 1.51. Turning to IERLHDSISEEGFHYLVFDLVTGG [V2E], the protein stability index was 2.3. With IMRLHDSISEEGFHYLVFDLVTGG [V2M] the figure was 1.93; with ILRLHDSISEEGFHYLVFDLVTGG [V2L], 2.69. With IARLHDSISEEGFHYLVFDLVTGG [V2A] the figure was 2.29. Turning to ITRLHDSISEEGFHYLVFDLVTGG [V2T], the protein stability index was 2.52. As to IPRLHDSISEEGFHYLVFDLVTGG [V2P], the protein stability index was 1.46.

Take IVRLHDSISIEGFHYLVFDLVTGG [E10I]: the protein stability index is 3.06. With IVRLHDSISNEGFHYLVFDLVTGG [E10N] the figure was 4.11. With IVRLHDSISFEGFHYLVFDLVTGG [E10F] the figure was 2.4; with IVRLHDSISAEGFHYLVFDLVTGG [E10A], 3.84. For IVRLHDSISHEGFHYLVFDLVTGG [E10H] the value was 3.04; for IVRLHDSISMEGFHYLVFDLVTGG [E10M], 2.53; for IVRLHDSISKEGFHYLVFDLVTGG [E10K], 2.7. For TVRLHDSISEEGFHYLVFDLVTGG [I1T], the protein stability index was 2.07. On to EVRLHDSISEEGFHYLVFDLVTGG [I1E], for which the protein stability index came out at 2.24.

As to PVRLHDSISEEGFHYLVFDLVTGG [I1P], the protein stability index is 1.25. For KVRLHDSISEEGFHYLVFDLVTGG [I1K] the value was 2.05; for HVRLHDSISEEGFHYLVFDLVTGG [I1H], 3.43.

With SVRLHDSISEEGFHYLVFDLVTGG [I1S], the protein stability index amounted to 3.07. With GVRLHDSISEEGFHYLVFDLVTGG [I1G], the protein stability index was 1.94. With VVRLHDSISEEGFHYLVFDLVTGG [I1V] the figure was 2.13; with FVRLHDSISEEGFHYLVFDLVTGG [I1F], 1.06; with MVRLHDSISEEGFHYLVFDLVTGG [I1M], 3.44.

As to NVRLHDSISEEGFHYLVFDLVTGG [I1N], the protein stability index is 1.75. For IVRLHNSISEEGFHYLVFDLVTGG [D6N] the value was 1.95; for IVRLHMSISEEGFHYLVFDLVTGG [D6M], 2.4; for IVRLHTSISEEGFHYLVFDLVTGG [D6T], 4.86. For IVRLHCSISEEGFHYLVFDLVTGG [D6C], the protein stability index was 2.66. With IVRLHASISEEGFHYLVFDLVTGG [D6A] the figure was 3.03; with IVRLHPSISEEGFHYLVFDLVTGG [D6P], 4.25. With IVRLHDSASEEGFHYLVFDLVTGG [I8A] the figure was 2.21.

Take IVRLHDSYSEEGFHYLVFDLVTGG [I8Y]: the protein stability index is 3.84. For IVRLHDSPSEEGFHYLVFDLVTGG [I8P] the value was 3.04; for IVRLHDSKSEEGFHYLVFDLVTGG [I8K], 2.4; for IVRLHDSGSEEGFHYLVFDLVTGG [I8G], 1.64.

In the case of IVRLHDSQSEEGFHYLVFDLVTGG [I8Q], the protein stability index amounted to 1.69.
